Source: the supplement of paper PMC12042874
± gives the uncertainty stated by the source.

Assay: amyloid nucleation score (Sup35N fusion, yeast selection) (log enrichment); library NNK2; higher = more nucleation; inactive = no reads after selection
In short: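 Libraries of peptides of 20 random codons fused to Sup35N were expressed in psi-negative yeast and induced 24 hours with 100 μM copper sulfate. Selection was 7 days at 30°C on medium lacking adenine and uracil, and plasmid inserts were Illumina-sequenced before and after selection. Nucleation score is the DiMSum log enrichment of output over input reads, centred on the mode score of non-aggregating sequences, and sequences with under 100 input reads were left out.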

Row | Substance | amyloid nucleation score
1 | EYRGSVWLAGS | -0.379 ± 0.29
2 | VKGISWGLRFS | inactive
3 | PFFVV | -0.791 ± 1.1
4 | FIMYFYKRTNYNFIKYHASA | 1.52 ± 0.15
5 | VSSNSVWSIY | -1.01 ± 0.44
6 | RRLWGIALYRVSLVVFGSLY | -0.354 ± 0.25
7 | SARWYILRVFIFFIPRSAYK | -1.59 ± 0.76
8 | SLLTCLSGMHGWVSIT | -0.13 ± 0.27
9 | VAVFLNNA | inactive
10 | LYDVAQDEPLVSRMGLFDPR | 3.46 ± 0.069
11 | VLACTEGNVLFEDDLRTKGL | 1.56 ± 0.35
12 | VGRNYLWYRTMPDIYCQVCG | 1.62 ± 0.077
13 | GIYYTT | -0.854 ± 0.28
14 | GMSYTLYQSWTVDHTVILPP | 3.99 ± 0.12
15 | EGMTMTHGAGQLMLGGTASV | 0.904 ± 0.44
16 | TSRDSRAL | -0.742 ± 1.1
17 | SVILILSVGLLTIYLSRNG | 2.76 ± 0.078
18 | ICQRVDCSLCGPGWCTFVEH | 9.398 ± 0.051
19 | YYFNEREK | inactive
20 | GRYHIDSRKGKSNKSRGNIY | inactive
21 | DKYSWRKNGCGGWCVTTVVG | 0.573 ± 0.3
22 | TIFGRENYEDVKSASEVGLS | 0.135 ± 0.79

Row | Substance | amyloid nucleation score
23 | RLRNI | 0.399 ± 0.2
24 | TLFVKTYMSVFYIIACSSC | -0.218 ± 0.64
25 | ESYTIDCRVFGLRGKGSTRA | 0.695 ± 0.46
26 | VLSLHDSVLLYRSAGIRYGW | 5.03 ± 0.058
27 | CLRILGDISSFRGMRHTTLH | 0.042 ± 1.1
28 | RKPLLHLVRFRWNNPLDNE | -1.03 ± 0.76
29 | HGGFRDFQSLSVPIRYDLYD | 1.14 ± 0.2
30 | AYINRHVEWRCTVRTVALSS | 0.664 ± 0.38
31 | GCSWEITDVHGGRLKLAMDP | 1.12 ± 0.32
32 | HVFMSTIKICRDQLNHQLRE | 7.729 ± 0.037
33 | PRRCSISIEFRDE | -0.718 ± 0.76
34 | SCFTLSFKVITLHSRLQFIW | 0.181 ± 0.35
35 | ATKVISALSIRMRRK | 1.32 ± 0.3
36 | LLVRLSVCLSSEPANWDTG | 4.2 ± 0.073
37 | NAYWNDGFVQAFGRGK | -0.644 ± 0.63
38 | FFSMRVIIMFERNSSVFAVQ | 4.1 ± 0.11
39 | TKVGYLNS | inactive
40 | CRYRLYYRCEVLEYLSDFTW | -0.492 ± 0.56
41 | GGMPVFISVTVLYEWNDFLF | 6.671 ± 0.032
42 | YAGTH | -1.72 ± 0.48
43 | SCLYSSRPSMLGTIYRRMRC | 0.163 ± 0.34
44 | NLTMYILRNYTCIMYYIKVC | -0.208 ± 1

Row | Substance | amyloid nucleation score
45 | ANSPVGHEPGFECKSGFRET | 0.168 ± 0.57
46 | YYSKNAVVWVNGCVRRVMII | 0.127 ± 0.63
47 | TMFGPH | 0.775 ± 0.74
48 | SILLYKFK | 1.54 ± 0.12
49 | SVALSQVLEKVWESVPKELN | 0.62 ± 0.62
50 | LTWICEFGRSFFSWICVMIG | 0.856 ± 0.14
51 | VTTNWGSSVRNQAEGYRPSL | -0.067 ± 0.42
52 | VVNLETVCIYRKLSYKFQVR | inactive
53 | SVFMIYKTVSGGHAYFVVQQ | 4.97 ± 0.072
54 | ILRLTAVCHGHFAVRPDWKR | 0.248 ± 0.35
55 | SLATSAWVVYLWFVVRDIVV | 0.388 ± 0.33
56 | LSVCVRHEDGGSIAVECGS | 0.242 ± 0.77
57 | WFDWLVYSGLDHGRFIEVLK | -0.432 ± 0.74
58 | QYCARAR | 1.87 ± 0.4
59 | THDPNLRCYFVIGTELHSRT | 0.126 ± 0.8
60 | YRNCLPMGGNALS | -0.964 ± 1.1
61 | HSWILNHNIDVTIGNVTWSG | 6.863 ± 0.03
62 | TTFTIWAYMVAHQYLEIGCI | inactive
63 | WFNFVPYHADYGNFL | 0.053 ± 1.1
64 | LSRLN | -0.055 ± 0.53
65 | KYVCVI | 0.809 ± 0.48
66 | SRKPNQINNRSRNSMLGARR | -0.162 ± 0.27

Row | Substance | amyloid nucleation score
67 | GDSGFKLI | -0.105 ± 0.39
68 | IRVTCLLGL | -0.055 ± 0.2
69 | RVDYSMREFCLSSRAREDTV | -0.353 ± 0.42
70 | IFYGRYGAILWGAKCLY | 1.96 ± 0.21
71 | FIKMSNSWAYDAEFSVPLHM | 3.84 ± 0.047
72 | FRWGFVSPDRSIGDVFLQLC | -0.137 ± 1.1
73 | LHTWSVSLVYYNVFYLSSRA | -0.417 ± 1.1
74 | GDTIVSSGKVSCQRHASFLI | 0.959 ± 0.74
75 | ICGVSFTGAIYARGGRLRIR | 0.145 ± 0.63
76 | MRVLFIDYKTVRYCDDL | -1.03 ± 1.1
77 | RSLLVEFRRYKQRH | 6.238 ± 0.062
78 | NNLKLCNRTMCLVYEVCVTD | -1.23 ± 0.62
79 | FDSPYPMPMSHSVNSSLIIW | -0.155 ± 0.3
80 | TGRFLEVREQRRDARVEMSR | 0.183 ± 1
81 | GQCPIHMCGRNTYMK | 0.05 ± 0.32
82 | CFRKFRMEEPLGIRFSHLDT | -0.345 ± 0.21
83 | NNSGSNKSD | -0.509 ± 0.78
84 | PDLRKDYAWLLLFLVRVRGD | 4.43 ± 0.085
85 | IIVFKEESYIYKTRSVLGSR | -0.503 ± 0.56
86 | HFSDIRAFCFPCNPIMRVMK | -0.406 ± 0.56
